Consider 34 variants from the RNAGym collection of RNA variant scans (doi:10.1093/nar/gkz1192).

First the molecules themselves.
B1: CPEB3 Ribozyme (parent)
chain: UAACAGGGGGCCACAGCAGAAGCGUUCACGUCGCAGCCCCUGUCAGAUUCUGGUGAAUCUGCGAAUUCUGCUGUAUAUCUC

This series covers variants of B1. The experiment in a line: self-cleavage, relative activity (ratio to wild type); higher = more cleavage; in vitro, sequencing. In short, it runs like this: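 For each CPEB3 ribozyme variant, relative activity is its cleaved/total read fraction divided by the unmutated ribozyme's. Barcoded error-prone PCR libraries were transcribed by T7 RNA polymerase (5 hours, 37°C) and held in DNase I for 15 min before an EDTA stop, with cleavage occurring throughout. Template-switching reverse transcription and Illumina sequencing were used to read the RNAs. A 5-read minimum applied, and results are the mean of three batches.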
AAACAGGGGGCCACAGCAGAAGCGUUCACGUCGCAGCCCCUGUCAGAUUCUGGUGAAUCUGCGAAUUCUGCUGUAUGUCUC [U1A A77G]: the self-cleavage was found to be 1.12. For UAACAGGGGGCCACAGCAGAAGCGUUCACGUCGCAGCCCCUGUCAGAUUCUGGUGAAUCUGCGAAUUCUGCUCUAUAGCUC [G73C U78G], the self-cleavage came to 1.23. With UAACAGGGGGCCACCGCAGAAGCGUUCACGUCGCAGCCCCUGUCAGAUUCUGGUGGAUCUGCGAAUUCUGCUGUAUAUCUC [A15C A56G], the self-cleavage amounted to 0.68. As for UAACAGGGGGCCACAGCAGAAGCGUUCACGUCGCAGCCCCUGUCAGAUUCUGGUGAAUCUGCGAAUUCUGCUAUAUAUCUC [G73A], the self-cleavage came out at 1.27. Turning to UAACAGGGGGCCACAGCUGAAGCGUUCACGUCGCAGCCCCUGUCAGAUUCUGGUGAAUCUGCGAAUUCUGCGGUAUAUCUC [A18U U72G], the self-cleavage was 0.5. Take UAACAGGGGGCCACAGCAGAAGCGUCCACGUCGCAGCCCCUGUCAGAUUCUGGUGAAUCUGCGAAUUCUGCUGGAUAUCUC [U26C U74G]: the self-cleavage is 0.78. In the case of UAACAGGGGGCCACAGCAGAAGCGUUCACGUCGCAGCCCCUGUCAGAUUCUGGUUAAUCUGCGAAUUCUGCUGUAUAUCAC [G55U U80A] it was 1.11.

As for UAACAGGGGGCCACAGCAGAAGCGUUCACGUCGCAGCCCCUGUCAGUUUCUGGUGAAUCUGCGAAUUCUGCUGUAUGUCUC [A47U A77G], the self-cleavage turned out to be 0.37. Take UAACAGGGGGCCACAGCAGAUGCGUUGACGUCGCAGCCCCUGUCAGAUUCUGGUGAAUCUGCGAAUUCUGCUGUAUAUCUC [A21U C27G]: the self-cleavage stood at 0.07. Turning to UGACAGGGGGCCACAGCAGAAGCGUUCACGUCGCAGCCCCUGUCAGAUUCUUGUGAAUCUGCGAAUUCUGCUGUAUAUCUC [A2G G52U], the self-cleavage is 0.77. Turning to UAACAGGGGGCCACAGCAGAAGCGUUCACGUCGCAGCCCCUGUCAGAUUCUGGUGAAUCUGCGAAUUCAGCUGUAUAUCUC [U69A], the self-cleavage is 0.63.

With UAACAGGUGGCCACAGCAGAAGCGUUCACGUCGCAGCCCCUGUCAGAUUCUGGUGAAUCUGCAAAUUCUGCUGUAUAUCUC [G8U G63A], the self-cleavage was 0.07. Take UAACAGGGGGCCACAGCAGAAGCGUUCACGACGCAGCCCCUGUCAGAUUCUGGUGGAUCUGCGAAUUCUGCUGUAUAUCUC [U31A A56G]: the self-cleavage is 0.48. In the case of CAACAGGGGGCCACAGCAGAAGCGUUCACGUCGCAGCCCCUGUCAGAUUCGGGUGAAUCUGCGAAUUCUGCUGUAUAUCUC [U1C U51G], the self-cleavage came out at 0.97. For UAACAGGGGGCCACAGCAGAAGCGUUCACGUCGCAGCCCCUGUCAGGUUCUGGUGAAUCUGCGAAUUCUGCUUUAUAUCUC [A47G G73U], the self-cleavage was 1.26. As for UAACAAGGGGCCACAGCAGAAGCGUUCACGUCGCAGCCCCUGUCAGAUUCUGGUGAAUCUGCGAAUUCUGCUGUAUACCUC [G6A U78C], the self-cleavage was 0.24. To UAACAGGGGGCCACAGCAGAAGCGUUCACGUCGCAGCCCCUGUCAGAUUCUAGUGAAUCUGCGAAGUCUGCUGUAUAUCUC [G52A U66G] belongs 0.76; to UAACAGGGGGCCACAGUAGAAGCGUUCACGUCGCAGCCCCUGUCAGAUUCUGGUGAAUCUGCGAAUUUUGCUGUAUAUCUC [C17U C68U], 0.51; to UAACAGGGCGCCACAGCAGAAGCGUUCACGUCGCAGCCCCUGUCAGAUUCUGGUGAAUCUGCGAAUUCUGGUGUAUAUCUC [G9C C71G], 0.05. For UAACAGGGGGCCACAGCAGAAGCGUUCACGUCGCAGCCCCUGUCAGAUUCUGGUGAAUCUGCGAAUUCUGAUGUUUAUCUC [C71A A75U], the self-cleavage amounted to 0.17. Regarding UAACAGGAGGCCACAGCAGAAGCGUUCACGUCGCAGCCCCUGUCAGAUUCUGGUGAAUCUGCGAAUUCGGCUGUAUAUCUC [G8A U69G], the self-cleavage turned out to be 0.28. In the case of UAACAGGGGGCCACAGCAGAAGCGUUCACGUCGCAGCCCCUGUCAGAUUCUGGUGGAUAUGCGAAUUCUGCUGUAUAUCUC [A56G C59A] it was 0.23. To UAACUGGGGGCCACAGCAGAAGCGAUCACGUCGCAGCCCCUGUCAGAUUCUGGUGAAUCUGCGAAUUCUGCUGUAUAUCUC [A5U U25A] belongs 0.26; to UAACAGGGUGCCACAGCAGAAGCGCUCACGUCGCAGCCCCUGUCAGAUUCUGGUGAAUCUGCGAAUUCUGCUGUAUAUCUC [G9U U25C], 0.14; to UAACAGGGGGCCACAGCAGAAGCGUUCACGUCGCAGCCUCUGUCAGAUUCUGGUGAAUCUGCGAAUUCUGCUGCAUAUCUC [C39U U74C], 1.1.

As for UAACAGGGGGCCACAGCAGAAGCGUACACGUCGCAGCCCCUGUCAGAUUCUGGUUAAUCUGCGAAUUCUGCUGUAUAUCUC [U26A G55U], the self-cleavage turned out to be 0.77. UAACAGGGGGCCACAGCAGAAGCGUUCACGUCGCAGCCCCUGUUAGAUUCUGGUGAAUCUGCGGAUUCUGCUGUAUAUCUC [C44U A64G]: the self-cleavage is 0.21.

With UAACAGAGGGCCACAGCAGAAGCGUUCACGUCGCAGCCCCUGUCAGAUUCUGGUGAAUCUGCGAGUUCUGCUGUAUAUCUC [G7A A65G], the self-cleavage was determined as 0.11.

UAACAGGGGGCCACAGCAGAAGCGUUCAAGUCGCAGCCCCUGUCGGAUUCUGGUGAAUCUGCGAAUUCUGCUGUAUAUCUC [C29A A45G]: the self-cleavage came out at 0.46. For UAACAGGGGGCCACAGCAGAAGCGUUCACAUCGCAGCCCCUGUCAGAUGCUGGUGAAUCUGCGAAUUCUGCUGUAUAUCUC [G30A U49G], the self-cleavage is 0.22. In the case of UAACAGGGGGCCACAGCAGAAGCGUUCACGUCGCAGCCCCUGUCAGAUUCUGGUGAGUCUGCGAAUUCUGCUGUAUAACUC [A57G U78A] it was 0.97. As for UAACAGGGGGCCGCAGCAGAAGCGUUCACGUCGCAGCCCCUGUCAGAUUCUGGUGAAUCUGCAAAUUCUGCUGUAUAUCUC [A13G G63A], the self-cleavage came out at 0.68. For the variant UAACAGGGGGCCACAGCAGAAGCGUUCACGUCGCAGCGCCUGUCAGAUUCUGGUGAAUCUGCGGAUUCUGCUGUAUAUCUC [C38G A64G], the self-cleavage was 0.2. In the case of UAACAGGGGACCACAGCAGAAGCGUUCACGUCGCAGCCCCUGUCAGAUUCUGGCGAAUCUGCGAAUUCUGCUGUAUAUCUC [G10A U54C] it was 0.19.
